Molecular target: monomeric FcRn (Sinobiological inc., CT009-H08H) (human;, UniProt P55899 24-297; P61769 21-119)
Test: Biacore SPR; pH 6.0

Kd [nM] | Binder
6.99 | EFc88 (protein) DKTHTCPPCSAPELLGGPSVFLFPPKPKDTLMISRTPEVTCVVVDVSHEDPEVKFNWYVDGVEVHNAKTKPREELYNSTYRVVSVLTVLHQDWLNGKEYMCKVSNKALPAPIEKTISKAKGQPREPQVYTLPPSREELTKNQVSLTCLVKGFYPSDIAVEWESNGQPENNYKTTPPVLDSDGSFILYSKLTVDKSRWQQGNVFSCSVLHEALHNHYTQKSLSLSPGK
6.68 | trastuzumab Fc variant EFc82 (antibody) Fc: DKTHTCPPCQAPELLGGPSVFLYPPEPKDTLMISRTPEVTCVVVDVSHEDPEVKFNWYVDGVEVHNAKTKPREEQYNSTYRVVSVLTVLHQDWLNGKEYKCKVSNKALPAPIEKTISKAKGQPREPQVYTLPPSRDELTKSQVSLTCLVKGFYPSDIAVEWESIGQPENNYKTTPPVLDSDGSFFLYSKLTVDKSRWQQGNVFSCSVLHEALHNHYTQKSLSLSPGK

From US20200223938A1 (published 2020)
